The target in this assay is dog angiotensin-converting enzyme 2 (dACE2) ectodomain, 6xHis (dog). As to the kind of experiment: SPR. For orientation: Surface plasmon resonance follows binding to a sensor surface in real time, without labels.

Take “SARS-CoV-2 spike (S) protein receptor binding domain (RBD), wild type (from UniProt P0DTC2) (domain or fragment)”: the Kd was 123 nM.

A word on the Kd: it is the equilibrium constant for the complex coming apart. The low end stands for tighter binding, the high end for weaker binding.

(Values after paper PMC8263772.)
